US20200181211A1
pIC50, pKd: −log10 of the molar value.

Assays:
[1] = target: manually pulled Fn fibers (relaxed, fibrillar fibronectin from human plasma, 5% Fn-Cy5) (human) (UniProt P02751); test: displacement assay on relaxed manually pulled Fn fibers, competitor of FnBPA5-Alexa488
[2] = target: soluble plasma fibronectin (Fn) isolated from human plasma (human) (UniProt P02751); test: fluorescence anisotropy titration, 100 nM labelled peptide, Fn 0 to 1.4 µM in PBS, one-site-binding model
[3] = target: manually pulled Fn fibers (relaxed, fibrillar fibronectin from human plasma, 5% Fn-Cy5) (human) (UniProt P02751); test: titration of fluorescent peptide on relaxed manually pulled Fn fibers, confocal intensity ratio peptide/Fn-Cy5, Hill fit

Substance	pIC50 [1]	pKd [2]	pKd [3]
natIn-FnBPA5 (cold labeled) (peptide)	7.31	–	–
FnBPA5-Alexa488 (peptide)	–	7.12	7.55
